Measured values taken from US6559282B1, “Artificial T helper cell epitopes as immune stimulators for synthetic peptide immunogens including immunogenic LHRH peptides” (United Biomedical, Inc., priority 1998, dated 2003).
Marks after values point to notes of the source that are not given here.

Experiments:
LHRH = target: T1, LHRH (Rattus norvegicus, UniProt P07490); assay: Serum testosterone RIA in rats immunized with LHRH peptide immunogens (immunocastration); assay type: in vivo, Sprague-Dawley rats, male; conditions: i.m., serum at weeks 10 or 12
T1 construct: from tissue; host or cells: living male rats (in vivo, endogenous hormone)
Description: B. Protocols for immunization. The LHRH peptide immunogens shown in Tables 2a and 2b were evaluated on groups of 5 to 10 rats as specified by the experimental immunization protocol outlined below and by serological assays for determination of immunogenicity on serum samples:
Blood was collected and processed into serum, and stored prior to ELISA and radioimunoassay (RIA) for determination of serum testosterone values.
D. Determination of immunogen efficacy. Immunogens were evaluated for efficacy by RIA for serum testosterone values. Serum testosterone levels were measured using an RIA kit from Diagnostic Products (Los Angeles, Calif.) according to manufacturer's instructions. The lower detection limit for testosterone ranged from 0.01 to 0.03 nmol/L. Each sample was analyzed in duplicate. Serum samples were scored as being at castration level when the testosterone level was below limits of detection and as “near castration” at <0.1 nmol/L. Results were verified by comparison to testosterone levels in serum from mechanically castrated rats.
E. Results. […] The efficacy of the anti-peptide antibody responses, consequential to the cross-reactivity to natural LHRH, was established by determining serum testosterone levels. Those results are summarized in the right columns of Tables 2a and 2b as numbers of animals having castration level serum testosterone per total animals in the group.

[1] = tested on: LHRH peptide (SEQ ID NO:77); assay: ELISA of immune rat sera on LHRH peptide-coated plates (immunogenicity); assay type: in vivo, Sprague-Dawley rats, male; conditions: 25 μg doses on Alum at 0 and 3 weeks; ELISA peptide SEQ ID NO: 28
Description: C. Method for determination of immunogenicity. Antibody activities were determined by ELISA (enzyme-linked immunosorbent assays) using 96-well flat bottom microtiter plates which were coated with the LHRH peptide (SEQ ID NO:77) as immunosorbent. Aliquots (100 μL) of the peptide immunogen solution at a concentration of 5 μg/mL were incubated for 1 hour at 37° C. The plates were blocked by another incubation at 37° C. for 1 hour with a 3% gelatin/PBS solution. The blocked plates were then dried and used for the assay. Aliquots (100 μL) of the test immune sera, starting with a 1:100 dilution in a sample dilution buffer and ten-fold serial dilutions thereafter, were added to the peptide coated plates. The plates were incubated for 1 hour at 37° C.
The plates were washed six times with 0.05% Tween® in PBS. 100 μL of horseradish peroxidase labeled goat-anti-rat IgG antibody was added at appropriate dilutions in conjugate dilution buffer (Phosphate buffer containing,0.5M NaCl, and normal goat serum). The plates were incubated for 1 hour at 37° C. before being washed as above. Aliquots (100 μL) of o-phenylenediamine substrate solution were then added. […] The A492 nm of the contents of each well was read in a plate reader. ELISA titers were calculated based on linear regression analysis of the absorbances, with cutoff A492 nm set at 0.5. […]

artificial Th epitope = assay: ELISA of immune rat sera on the Th epitope peptide (antibody specificity); assay type: in vivo, rats; conditions: 25 μg doses on Alum at 0 and 3 weeks; sera diluted 1:100; ELISA on respective Th peptide

Substance: 54 (ISMTEIRTVIVTRMETMLFGGEHWSYGLRPG) [compound 54]
- no. castrated (animals having castration level serum testosterone per total animals in the group) (LHRH; 25 μg/dose, Alum (0,3 wpi)): 0/8

Substance: 37 (DLSDLKGLLLHKLDGLGGEHWSYGLRPG) [compound 37]
- no. castrated (animals having castration level serum testosterone per total animals in the group) (LHRH; 25 μg/dose, Alum (0,3 wpi)): 0/6

Substance: 33 (KKKMMTMTRMITMITTID) [compound 33]
- no. castrated (animals having castration level serum testosterone per total animals in the group) (LHRH; 25 μg/dose, Alum (0,3 wpi)): 5/5

Substance: 30 (KKKLFLLTKLLTLPFSLD) [compound 30]
- no. castrated (animals having castration level serum testosterone per total animals in the group) (LHRH; 400 μg/dose, Alum (0,3,6 wpi)): 2/5
- no. castrated (animals having castration level serum testosterone per total animals in the group) (LHRH; 400 μg/dose, IFA (0,3,6 wpi)): 9/10

Substance: 47 (MSEIKGVIVHKLEGMGGEHWSYGLRPG) [compound 47]
- no. castrated (animals having castration level serum testosterone per total animals in the group) (LHRH; 25 μg/dose, Alum (0,3 wpi)): 2/6

Substance: 34 (FITMDTKFLLASTHIL) [compound 34]
- no. castrated (animals having castration level serum testosterone per total animals in the group) (LHRH; 25 μg/dose, Alum (0,3 wpi)): 1/8
- no. castrated (animals having castration level serum testosterone per total animals in the group) (LHRH; 100 μg/dose, IFA (0,3,6 wpi)): 4/6

Substance: 38 (EISEIRGIIIHRIEGIGGEHWSYGLRPG) [compound 38]
- no. castrated (animals having castration level serum testosterone per total animals in the group) (LHRH; 25 μg/dose, Alum (0,3 wpi)): 5/6

Substance: 41 (ISEIKGVIVHKIEGIGGEHWSYGLRPG) [compound 41]
- LHRH Reactivity: number of animals with anti-LHRH titers >1:1000/total animals immunized [1]: 6/6
- Th Reactivity: number of animals with anti-Th reactivity >0.100 A490/total animals immunized (artificial Th epitope): 0/6^c
- no. castrated (animals having castration level serum testosterone per total animals in the group) (LHRH; 25 μg/dose, Alum (0,3 wpi)): 6/6

Substance: 42 (MTEIRTVIVTRMETMGGEHWSYGLRPG) [compound 42]
- no. castrated (animals having castration level serum testosterone per total animals in the group) (LHRH; 25 μg/dose, Alum (0,3 wpi)): 6/6

Substance: 29 (KKKFFFFTKFFTFPVSFD) [compound 29]
- no. castrated (animals having castration level serum testosterone per total animals in the group) (LHRH; 400 μg/dose, Alum (0,3,6 wpi)): 5/5
- no. castrated (animals having castration level serum testosterone per total animals in the group) (LHRH; 400 μg/dose, IFA (0,3,6 wpi)): 8/10

Substance: 40 (DFSDFKGFFFHKFDGFGGEHWSYGLRPG) [compound 40]
- no. castrated (animals having castration level serum testosterone per total animals in the group) (LHRH; 25 μg/dose, Alum (0,3 wpi)): 4/8

Substance: 43 (LSEIKGVIVHKLEGVGGEHWSYGLRPG) [compound 43]
- no. castrated (animals having castration level serum testosterone per total animals in the group) (LHRH; 25 μg/dose, Alum (0,3 wpi)): 14/14
- no. castrated (animals having castration level serum testosterone per total animals in the group) (LHRH; 100 μg/dose, IFA (0,3,6 wpi)): 6/6

Substance: 39 (DVSDVKGVVVHKVDGVGGEHWSYGLRPG) [compound 39]
- no. castrated (animals having castration level serum testosterone per total animals in the group) (LHRH; 25 μg/dose, Alum (0,3 wpi)): 3/6

Substance: 35 (KKKFITMDTKFLLASTHIL) [compound 35]
- no. castrated (animals having castration level serum testosterone per total animals in the group) (LHRH; 25 μg/dose, Alum (0,3 wpi)): 2/6

Substance: 48 (LTEMRTVIVTRMETVGGEHWSYGLRPG) [compound 48]
- no. castrated (animals having castration level serum testosterone per total animals in the group) (LHRH; 25 μg/dose, Alum (0,3 wpi)): 1/6

Substance: 32 (KKKIITITRIITIITTI) [compound 32]
- no. castrated (animals having castration level serum testosterone per total animals in the group) (LHRH; 25 μg/dose, Alum (0,3 wpi)): 1/6
